Experimental data as given in a protein production outcome set (Wang et al. 2014).

Assay: label from the status in PepcDB records

Protein production, failed:
MADTRPERRFTRIDRLPPYVFNITAELKMAARRRGEDIIDFSMGNPDGATPPHIVEKLCTVAQRPDTHGYSTSRGIPRLRRAISRWYQDRYDVEIDPESEAIVTIGSKEGLAHLMLATLDHGDTVLVPNPSYPIHIYGAVIAGAQVRSVPLVEGVDFFNELERAIRESYPKPKMMILGFPSNPTAQCVELEFFEKVVALAKRYDVLVVHDLAYADIVYDGWKAPSIMQVPGARDVAVEFFTLSKSYNMAGWRIGFMVGNKTLVSALARIKSYHDYGTFTPLQVAAIAALEGDQQCVRDIAEQYKRRRDVLVKGLHEAGWMVEMPKASMYVWAKIPEPYAAMGSLEFAKKLLNEAKVCVSPGIGFGDYGDTHVRFALIENRDRIRQAIRGIKAMFRADGLLPASSKHIHENAE, MADTSPSACLVFQGSGFYAKLSDFRACLTGFMLPLSPSLLPTLAAAVLYAAATFYQGSRLATGAKANKRLLVTLGILALLAHAASLLTHLLTPVGLGLDFFSAASLIAAAVIALTLLACWRIPVENLLVLLFPLGALTALLAQFVPTGTVPVIDEEPGILAHILLSILAYGMFTIAVFQALLLLVQDHQLKNKHPSGLIRNFPPLQTMESLLFGFLWAGWTLLSLSLISGWLFVENLFAQHLVHKTLLACLAWVVFSVLLWGRNRLGWRGHKAIRWTLAGFCLLMLAYFGSKLVREYILHI, MADYNNAVVFYDTSGIEYSKQIKKTLERGFERECFLINLDNRENTLSRLNLAMKTSKYVIFLFSSMYSNENMLDEAKTAFNSDKHIISLKLDDPELKKQISIHQSEFEDNYGLSKKVNDEVEKLKKMEKKGTDFVESQISFNMGNIYFNFGKYAEAIRCYKKAVKIIPDFVDALHNFNSLSNMNLFDMGEEPKKPVLYKDVTIDELVPDIFSNTVQKEPEEPQKYSELEPEELEDLILDGEIGENLEEIGSEDELTEKIDDKLPEIDESKDKSKAQPEDELNETFEEGIEYETFEVIDAEEKNEISDENLEISSLEPEFEEKSIFKLEKETEQPELEENLEPVLEVPEELVEDVEILDASEEDIEKELENQEVIIEEKLETLDELLDKSELESELVEEHTYEIDNNEFLEILSFANTLYESGDFEAAKTEYKKAIALNPGNSEVHNHYGCLLEYLEKYGEAEIEFKKAVALDGSNSKAYNNLATFLAKSEKYDEAEEHYKKAIEIAPDYWAAIYNLAAMYAALKRYDEAVAQVKSMVKIFRSDGNIKEVLELKKLIKHLKKLKIQKS, MAEARRDGRLPLTLVGGFLGAGKSTWLRHQLHAGRFARHHLLVNEAAETPVDNLLLGGAARLTLLAGGCACCEGQAQLRAALRAICETESGPEAGGIEGILLETSGLADPGAIAAMVAADPVLVRRLALAETLVLVDAAHGTAQLAAEPLARAQIEAAGRLVLTKPAAAPDLARLAATLRALAPEAELSAAERGVPVPLPAGAAEPYPLPPLAAAAPIRPHRLRIGAEGGWVALSTWLSALLQARGEDVVRVKGVVRTPAGRLLLQSVRRMVQPPETLPEGADLPGPAPPPRRERSC, MAEDEIVVEEEQSQPQEITPVPPSSSSSPSLVVEDDDEMKLKHLEFIQVAAVYFAACFSTLYELAKDNAGPLKLGVENIEDCVRTVLAPLYEKFHDVPFKLLLFVDRKVDDVFFDVETYVPSLVKQASSQALTVATEVQRTGVVDTTKSIARSVRDKYEPAAEYYAATLWRLLNQLPLFPEVAHLVIPTAFYWSEKYNDAVRYVGDRDYFGAEYLPMIPIEKISDILEQDQCRAD, MAEDTYEEECDYLFKAVLIGDSAVGKSNLLSRFSKDEFRFDSKPTIGVEFAYRNVHVGDKIIKAQIWDTAGQERFRAITSSYYRGALGALLIYDITRRTTFDNIKKWLFELRDFANPETVVVLVGNKSDLRQSREVEEDEGKTLAESEGLYFLETSALENVNVEEAFLVMIGRIHEVVTQRIASENKSNGAATPHINGNGNGTVLPVGKEIVNIHEVTATQPLLSSSSNCCFK, MAEELDDLTKFEAKGTSHHLPVGWLALFWGLIVFGAYYYWAYSPALGGWSQAKDLETGGASSGANLLWTIAFTAVPALVAIWMGLTQKKKAR, MAEELLAPEVIADLKARAISQPLVEHIYTADPSAHVFNGKIYIYPSHDIEAGIPFNDNGDHFGMEDYHVISLDSPDSPAVDNGVALHVKDVAWAERQMWPPDAAHKNGKYYLYFPAKRANGIFQIGVAVGDSPIGPFKAEPEAIKGSYSIDPAVFEDNDGEYYMYYGGIWGGQLQNYRNNQYDANRGEPADNEPALGPIVARLTADMKEFAEAPREIQILDQDGKPLLAGDHDRRFFEASWVHKYNDQYYFSYSTGNTHFLCYATGDNPYGPFTYRGQILTPVIGWTTHHSIAEYQGQWYLFYHDCVLSKGITHLRSVKMAPLTHKADGSIETITPYRD
